The target in experiment [1] is CD9(ECD)-ALP conjugate (human; bovine). The experiment in a line: HI-1000 capture immunoassay; secondary calibrator C4, 129.62 U/L; run 3.
Experiment [2] has as its target CD9(FL)-ALP conjugate (human; bovine). The experiment in a line: HI-1000 capture immunoassay; calibrator C4, 21.93 mU/L; run 1.
For experiment [3] the target is unchanged. The experiment in a line: HI-1000 capture immunoassay; calibrator C5, 43.86 mU/L; run 2.
The target of experiment [4] is CD9(ECD)-ALP conjugate (human; bovine). As to the kind of experiment: HI-1000 capture immunoassay; secondary calibrator C5, 387.01 U/L; run 1.
Experiment [5] has the same target. The experiment in a line: HI-1000 capture immunoassay; primary calibrator C3, 15.65 ng/mL; run 1.
Experiment [6] has the same target. As to the kind of experiment: HI-1000 capture immunoassay; secondary calibrator C1, 1.02 U/L; run 2.
The target is the same in experiment [7]. As to the kind of experiment: HI-1000 capture immunoassay; thawed aliquot 3 of secondary calibrator C5.
For experiment [8] the target is unchanged. As to the kind of experiment: HI-1000 capture immunoassay; secondary calibrator C4, 129.62 U/L; run 1.
Experiment [9] has the same target. As to the kind of experiment: HI-1000 capture immunoassay; secondary calibrator C5, 387.01 U/L; run 2.
For experiment [10] the target is unchanged. As to the kind of experiment: HI-1000 capture immunoassay; primary calibrator C1, 1.52 ng/mL; run 2.
For experiment [11] the target is unchanged. The experiment in a line: HI-1000 capture immunoassay; primary calibrator C4, 50.05 ng/mL; run 3.
Experiment [12] shares this target. As to the kind of experiment: HI-1000 capture immunoassay; secondary calibrator C5, 387.01 U/L; mean of 3.
Experiment [13] concerns the target CD9(FL)-ALP conjugate (human; bovine). The experiment in a line: HI-1000 capture immunoassay; calibrator C1, 1.83 mU/L; run 3.
Experiment [14] deals with CD9(ECD)-ALP conjugate (human; bovine). As to the kind of experiment: HI-1000 capture immunoassay; primary calibrator C4, 50.05 ng/mL; mean of 3.
The target of experiment [15] is CD9(FL)-ALP conjugate (human; bovine). The experiment in a line: HI-1000 capture immunoassay; calibrator C2, 3.7 ng/mL; run 3.
Chain of CD9(FL)-ALP conjugate (human; bovine) (chain, as listed by the source, chain 1 of 2): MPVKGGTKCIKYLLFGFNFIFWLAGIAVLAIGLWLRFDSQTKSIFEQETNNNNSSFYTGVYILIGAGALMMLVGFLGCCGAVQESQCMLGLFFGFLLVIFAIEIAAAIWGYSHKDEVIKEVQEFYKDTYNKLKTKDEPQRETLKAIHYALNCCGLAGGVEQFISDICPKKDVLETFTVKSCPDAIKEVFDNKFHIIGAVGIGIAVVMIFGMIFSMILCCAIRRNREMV
Chain of CD9(FL)-ALP conjugate (human; bovine) (P19111 20-506, chain 2 of 2): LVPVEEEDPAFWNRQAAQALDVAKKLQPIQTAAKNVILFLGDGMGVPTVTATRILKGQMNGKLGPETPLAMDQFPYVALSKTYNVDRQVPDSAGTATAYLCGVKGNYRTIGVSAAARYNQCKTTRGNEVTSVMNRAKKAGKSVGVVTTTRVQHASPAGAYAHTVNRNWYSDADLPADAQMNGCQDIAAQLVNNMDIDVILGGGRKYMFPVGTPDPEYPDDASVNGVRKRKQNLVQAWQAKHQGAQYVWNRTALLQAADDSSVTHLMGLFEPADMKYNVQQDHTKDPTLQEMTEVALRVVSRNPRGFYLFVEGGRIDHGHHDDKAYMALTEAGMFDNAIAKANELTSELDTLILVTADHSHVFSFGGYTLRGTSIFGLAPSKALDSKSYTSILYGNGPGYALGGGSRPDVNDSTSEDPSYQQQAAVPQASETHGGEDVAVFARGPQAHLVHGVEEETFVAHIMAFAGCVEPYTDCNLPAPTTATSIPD
The target is the same in experiment [16]. The experiment in a line: HI-1000 capture immunoassay; calibrator C5, 43.86 mU/L; run 3.
Experiment [17] concerns the target CD9(ECD)-ALP conjugate (human; bovine). The experiment in a line: HI-1000 capture immunoassay; thawed aliquot 3 of secondary calibrator C3.
Experiment [18] concerns the target CD9(FL)-ALP conjugate (human; bovine). As to the kind of experiment: HI-1000 capture immunoassay; calibrator C1, 1.0 ng/mL; run 3.
Experiment [19] addresses CD9(ECD)-ALP conjugate (human; bovine). As to the kind of experiment: HI-1000 capture immunoassay; primary calibrator C5, 159.87 ng/mL; mean of 3.

The text below walks through data of patent US20240118272A1.

Chain of CD9(ECD)-ALP conjugate (human; bovine) (chain, as listed by the source, chain 1 of 2): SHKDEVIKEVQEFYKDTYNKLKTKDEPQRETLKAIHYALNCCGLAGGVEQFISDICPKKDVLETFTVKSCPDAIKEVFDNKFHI
Chain of CD9(ECD)-ALP conjugate (human; bovine) (P19111 20-506, chain 2 of 2): as the sequence (P19111 20-506, chain 2 of 2) above

As to anti-CD9 antibody (Clone: H19a), the Count value in experiment [1] amounted to 69500 count; in experiment [2], 13400 count; in [3], 25600 count; in experiment [4], 220000 count; in [5], 7340 count; in [6], 937 count. Also, the Count value in experiment [7] was determined as 35700 count; in [8], 71000 count; in [9], 218000 count; in [10] it was 1100 count; in experiment [11] it was 22600 count; in experiment [13] it was 1460 count. Besides, the Count value was 3800 count in [15], 27800 count in [16], 3800 count in experiment [17] and 1470 count in experiment [18]. Moreover, the Count value (av) was 216000 count in experiment [12], 22200 count in experiment [14] and 69800 count in [19].
